Experimental data: paper PMC1976250 (Journal of neurochemistry, 2007)

T1: GST-GluR2 C-terminus (GST-R2C) (UniProt P19491 834-883)
T1 chain (looked up): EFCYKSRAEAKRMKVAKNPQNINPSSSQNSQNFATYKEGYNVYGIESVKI


How the values were obtained:
[1] = target: GST-PICK1 (protein interacting with C-kinase 1) (UniProt Q9EP80 1-416); assay: pull-down
[2] = target: T1, GST-GluR2 C-terminus (GST-R2C); assay: pull-down

GST-PICK1 (protein interacting with C-kinase 1), sequence (Q9EP80 whole entry): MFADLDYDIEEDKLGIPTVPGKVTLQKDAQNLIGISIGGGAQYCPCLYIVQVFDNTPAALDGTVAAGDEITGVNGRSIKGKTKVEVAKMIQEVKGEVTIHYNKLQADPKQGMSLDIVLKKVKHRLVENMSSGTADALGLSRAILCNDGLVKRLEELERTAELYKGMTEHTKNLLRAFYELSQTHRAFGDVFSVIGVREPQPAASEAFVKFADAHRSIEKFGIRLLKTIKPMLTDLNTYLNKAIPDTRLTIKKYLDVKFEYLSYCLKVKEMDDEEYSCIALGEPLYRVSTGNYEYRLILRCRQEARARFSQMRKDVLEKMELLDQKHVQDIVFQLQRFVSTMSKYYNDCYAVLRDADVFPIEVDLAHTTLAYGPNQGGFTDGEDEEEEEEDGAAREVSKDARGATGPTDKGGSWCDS

Binder	fold increase in binding at 15 μmol/L free Ca2+ compared with zero free Ca2+ [1] [fold]	binding at 15 μmol/L free Ca2+ relative to zero free Ca2+ [2] [%]
his6β-SNAP (β soluble NSF attachment protein) (natural protein, UniProt P81126 1-298, looked up) MDNAGKEREAVQLMAEAEKRVKASHSFLRGLFGGNTRIEEACEMYTRAANMFKMAKNWSAAGNAFCQAAKLHMQLQSKHDSATSFVDAGNAYKKADPQEAINCLNAAIDIYTDMGRFTIAAKHHITIAEIYETELVDIEKAIAHYEQSADYYKGEESNSSANKCLLKVAAYAAQLEQYQKAIEIFEQIGANTMDNPLLKYSAKDYFFKAALCHFIVDELNAKLALEKYEEMFPAFTDSRECKLLKKLLEAHEEQNSEAYTEAVKEFDSISRLDQWLTTMLLRIKKSIQGDGEGDGDLK	~7	
his6D142A NSF (enzyme, UniProt P18708 1-744, looked up) MAGRSMQAARCPTDELSLSNCAVVSEKDYQSGQHVIVRTSPNHKYIFTLRTHPSVVPGSVAFSLPQRKWAGLSIGQEIEVALYSFDKAKQCIGTMTIEIDFLQKKNIDSNPYDTDKMAAEFIQQFNNQAFSVGQQLVFSFNAKLFGLLVKDIEAMDPSILKGEPASGKRQKIEVGLVVGNSQVAFEKAENSSLNLIGKAKTKENRQSIINPDWNFEKMGIGGLDKEFSDIFRRAFASRVFPPEIVEQMGCKHVKGILLYGPPGCGKTLLARQIGKMLNAREPKVVNGPEILNKYVGESEANIRKLFADAEEEQRRLGANSGLHIIIFDEIDAICKQRGSMAGSTGVHDTVVNQLLSKIDGVEQLNNILVIGMTNRPDLIDEALLRPGRLEVKMEIGLPDEKGRLQILHIHTARMRGHQLLSADVDIKELAVETKNFSGAELEGLVRAAQSTAMNRHIKASTKVEVDMEKAESLQVTRGDFLASLENDIKPAFGTNQEDYASYIMNGIIKWGDPVTRVLDDGELLVQQTKNSDRTPLVSVLLEGPPHSGKTALAAKIAEESNFPFIKICSPDKMIGFSETAKCQAMKKIFDDAYKSQLSCVVVDDIERLLDYVPIGPRFSNLVLQALLVLLKKAPPQGRKLLIIGTTSRKDVLQEMEMLNAFSTTIHVPNIATGEQLLEALELLGNFKDKERTTIAQQVKGKKVWIGIKKLLMLIEMSLQMDPEYRVRKFLALLREEGASPLDFD		85
